Test results reported in publication PMC6541444 (Science translational medicine, 2019).

Biological target: T1, recombinant mouse IL-2Ra (Sino Biological) (mouse, UniProt P01590 22-236)
T1 sequence (looked up): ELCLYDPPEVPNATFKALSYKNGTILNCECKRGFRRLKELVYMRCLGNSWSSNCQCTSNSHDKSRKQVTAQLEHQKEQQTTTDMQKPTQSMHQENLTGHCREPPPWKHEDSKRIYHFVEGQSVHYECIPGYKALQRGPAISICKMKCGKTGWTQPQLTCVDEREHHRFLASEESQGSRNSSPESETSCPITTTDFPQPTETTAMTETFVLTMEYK
Assay: ELISA

binding result: binds
B1: mouse IL-2 (recombinant, unmodified) (ligand, UniProt P04351 21-169, looked up)
chain: APTSSSTSSSTAEAQQQQQQQQQQQQHLEQLLMDLQELLSRMENYRNLKLPRMLTFKFYLPKQATELKDLQCLEDELGPLRHVLDLTQSKSFQLEDAENFISNIRVTVVKLKGSDNTFECQFDDESATVVDFLRRWIAFCQSIISTSPQ
